This is an account of results in patent US20200199204A1 (UNITED STATES OF AMERICA AS REPRESENTED BY THE SECRETARY …, published 2020).

Among the targets are HIV-1 Env of CAP256.PI (HIV-1); HIV-1 Env of CAP256.SU (HIV-1); HIV-1 Env of 96ZM651.02 (HIV-1); HIV-1 Env of CAP210.E8 (HIV-1); HIV-1 Env of CAP244.D3 (HIV-1); HIV-1 Env of CAP45.G3 (HIV-1); HIV-1 Env of DU156.12 (HIV-1); HIV-1 Env of DU172.17 (HIV-1); HIV-1 Env of DU422.01 (HIV-1); HIV-1 Env of ZM109.4 (HIV-1); HIV-1 Env of ZM135.10a (HIV-1); HIV-1 Env of ZM197.7 (HIV-1); HIV-1 Env of ZM214.15 (HIV-1); HIV-1 Env of ZM233.6 (HIV-1); HIV-1 Env of ZM249.1 (HIV-1); HIV-1 Env of ZM53.12 (HIV-1); HIV-1 Env of 0260.v5.c36 (HIV-1); HIV-1 Env of BG505.w6m (HIV-1); HIV-1 Env of KER2008.12 (HIV-1); HIV-1 Env of KER2018.11 (HIV-1); HIV-1 Env of MB201 (HIV-1); HIV-1 Env of MB539.2B7 (HIV-1); HIV-1 Env of Q168.a2 (HIV-1); HIV-1 Env of Q23.17 (HIV-1); HIV-1 Env of Q259.d2.17 (HIV-1); HIV-1 Env of Q461.e2 (HIV-1); HIV-1 Env of Q769.d22 (HIV-1); HIV-1 Env of Q842.d12 (HIV-1); HIV-1 Env of RW020.2 (HIV-1); HIV-1 Env of UG037.8 (HIV-1); HIV-1 Env of 6535.3 (HIV-1); HIV-1 Env of AC10.29 (HIV-1); HIV-1 Env of CAAN.A2 (HIV-1); HIV-1 Env of PVO.04 (HIV-1); HIV-1 Env of QH0692.42 (HIV-1); HIV-1 Env of REJO.67 (HIV-1); HIV-1 Env of RHPA.7 (HIV-1); HIV-1 Env of SC422.8 (HIV-1); HIV-1 Env of THRO.18 (HIV-1); HIV-1 Env of TRJO.58 (HIV-1); HIV-1 Env of TRO.11 (HIV-1); HIV-1 Env of WITO.33 (HIV-1); HIV-1 Env of 3016.V5.c36 (HIV-1); HIV-1 Env of 6405.v4.c34 (HIV-1); HIV-1 Env of C1080.c3 (HIV-1); HIV-1 Env of CM244.ec1 (HIV-1); HIV-1 Env of CNE3 (HIV-1); HIV-1 Env of TH976.17 (HIV-1).

Common to all, as to assay: cell-based or functional assay
Assay [1] concerns the target HIV-1 Env of strain CNE3 (clade AE), on Env-pseudovirus (HIV-1 strain CNE3).
The target of assay [2] is HIV-1 Env of strain TH976.17 (clade AE), on Env-pseudovirus (HIV-1 strain TH976.17).
Assay [3] addresses SIV Env of SIVmac251.30 (nonHIV control), on Env-pseudovirus (SIVmac251.30).

B1: CAP256-VRC26.12 (antibody, V domains shown)
VH: EVQLVQSGGGVVQPGRSLRLSCAAPYFEFGRYGFHWVRQAPGKGLEWVASISFAGRDYYHSPSVWGRFTISRDNSKNTLYLQMNSLRIEDTALYFCARDLRESECEEWESDYYDFGKKGPCVKPRGVAGGLDLWGQGTMVIVSS
VL: QSVLTQPPSVSTAPGQTVTVSCSGGTSNTGNNFVSWYQHLPGTAPKLLIYENNKRPLGVPDRFSGAKSGTSATLAITGLQTGDEGDYYCATWSGSLNIGTGTKVSVLG
In the case of B1, the “IC50, neutralization of Env-pseudovirus (TZM-bl assay)” value (“IC50, neutralization” below) in assay [1] and in assay [2] was more than 50 µg/mL each time.

B2: CAP256-VRC26.08 (antibody, V domains shown)
VH: EVQLVESGGGVVQPGRSLTLSCAASQFTFSNYGMHWVRQAPGKGLEWVASVSNDGTKKYHGDSVWGRFTISRDNSKNTLFLQMSSLRAEDTAVYFCVRDQREDECEEWWSDYYDFGRELPCRKFRGLGLAGIFDIWGHGTMVTVSS
VL: QSALTQPPSVSAAPGQKVTISCSGNSSNIGNNFVSWYQQVPGTAPKLLLYETYRRPSGIPDRFSGSKSGTSATLAITGLQTGDEADYYCTVWGVRKGVGAVFGTGTKVTVLG
B2: the “IC50, neutralization” value in assay [1], in assay [2] and in assay [3] was more than 50 µg/mL throughout.

B3: CAP256-VRC26.09 (antibody, V domains shown)
VH: EVQLVESGGGVVQPGRSLTLSCAASQFNFANYGMHWVRQAPGKGLEWVASISNDGTKKYHEESVWGRFTISKDNSKSTLFLQMNSLRIEDTALYFCVKDQREDECEEWWSDYYDFGRELPCRKSRGLGLAGIFDMWGHGTMVTVSS
VL: QSALTQPPSVSAAPGQKVTISCSGNSSNIGNNFVSWYQQLPGTAPKLLIYENNRRPSGIPDRFSGSKSGTSATLAISGLQTGDEADYWCAVWGVRRGAGAVFGAGTKVTVLG
As to B3, the “IC50, neutralization” value in assay [1], in [2] and in [3] was more than 50 µg/mL in each case.

B4: CAP256-VRC26.10 (antibody, V domains shown)
VH: QAILVESGGGVVQPGRSLRLSCAASQFTFSGHGLHWVRQAPGKGLEWVASISFAGTKMDYADSVKGRFAISRDNSKNTLYLQMNSLRVEDTALYYCAKDMREYECEYWTSDYYDFGRPQPCIDRRGVVGIFDMWGQGTMVTVST
VL: QSVLTQPPSVSAAPGQKVTISCSGSSSNIGDNYVSWYQHLPGTAPKLLIYENTRRPSGIPDRFSGSKSGTSATLAITGLQTGDEADYYCGTWDVRPNRGAVFGTGTKVTVLG
As for B4, the “IC50, neutralization” value in assay [1], in [2] and in assay [3] was more than 50 µg/mL in each case.

B5: CAP256-VRC26.26 (antibody, V domains shown)
VH: EVQLVESGGGIVQPGRSLTLSCVASQFAFSHYGMHWVRQAPGKGLEWVASISRDETKKYHGDSVWDRFSISRDNSKNTLFLQMNSLRAEDTALYFCVRDQREDECEEWWSDYYDFGKELPCRKFRGLGLAGIFDVWGHGTMVIVSS
VL: QSALTQPPSVSAAPGQKVSISCSGNNSNIGNNFISWFQQFPGTAPKPLIYETYKRHSGIPDRFSGSKSGTSATLAITGLQTGDEADYYCATWGVRQGVGALFGTGTKVTVLG
Turning to B5, the “IC50 (neutralization, TZM-bl)” value in the assay with HIV-1 Env of CAP256.PI was more than 50 µg/mL; in the assay with HIV-1 Env of CAP256.SU, 0.003 µg/mL; with HIV-1 Env of 96ZM651.02, 0.111 µg/mL; with HIV-1 Env of CAP210.E8, 0.007 µg/mL; with HIV-1 Env of CAP244.D3, 36.6 µg/mL; with HIV-1 Env of CAP45.G3, 0.08 µg/mL. The “IC50 (neutralization, TZM-bl)” value with HIV-1 Env of DU156.12 is 0.013 µg/mL; with HIV-1 Env of DU172.17, 0.5 µg/mL; in the assay with HIV-1 Env of DU422.01 it was 0.08 µg/mL; with HIV-1 Env of ZM109.4 it was 0.025 µg/mL; with HIV-1 Env of ZM135.10a, more than 50 µg/mL; in the assay with HIV-1 Env of ZM197.7 it was 0.011 µg/mL. The “IC50 (neutralization, TZM-bl)” value with HIV-1 Env of ZM214.15 was 14.1 µg/mL; with HIV-1 Env of ZM233.6, 0.001 µg/mL; in the assay with HIV-1 Env of ZM249.1 it was 0.023 µg/mL; in the assay with HIV-1 Env of ZM53.12 it was 0.001 µg/mL; with HIV-1 Env of 0260.v5.c36, 0.78 µg/mL; with HIV-1 Env of BG505.w6m, 0.066 µg/mL. Moreover, the “IC50 (neutralization, TZM-bl)” value in the assay with HIV-1 Env of KER2008.12 was more than 50 µg/mL; in the assay with HIV-1 Env of KER2018.11, 0.001 µg/mL; with HIV-1 Env of MB201, more than 50 µg/mL; with HIV-1 Env of MB539.2B7, 0.634 µg/mL; in the assay with HIV-1 Env of Q168.a2 it was 0.005 µg/mL; in the assay with HIV-1 Env of Q23.17, more than 50 µg/mL. The “IC50 (neutralization, TZM-bl)” value in the assay with HIV-1 Env of Q259.d2.17 is 0.011 µg/mL; in the assay with HIV-1 Env of Q461.e2, 0.024 µg/mL; with HIV-1 Env of Q769.d22, more than 50 µg/mL; with HIV-1 Env of Q842.d12, 17.1 µg/mL; with HIV-1 Env of RW020.2 it was more than 50 µg/mL; in the assay with HIV-1 Env of UG037.8 it was more than 50 µg/mL. For the same molecule, the “IC50 (neutralization, TZM-bl)” value with HIV-1 Env of 6535.3 is more than 50 µg/mL; with HIV-1 Env of AC10.29, more than 50 µg/mL; with HIV-1 Env of CAAN.A2 it was more than 50 µg/mL; with HIV-1 Env of PVO.04, 0.562 µg/mL; in the assay with HIV-1 Env of QH0692.42 it was more than 50 µg/mL; in the assay with HIV-1 Env of REJO.67, more than 50 µg/mL. Moreover, the “IC50 (neutralization, TZM-bl)” value was more than 50 µg/mL in the assay with HIV-1 Env of RHPA.7; 1.74 µg/mL with HIV-1 Env of SC422.8; 0.667 µg/mL in the assay with HIV-1 Env of THRO.18; more than 50 µg/mL in the assay with HIV-1 Env of TRJO.58; more than 50 µg/mL with HIV-1 Env of TRO.11; more than 50 µg/mL with HIV-1 Env of WITO.33. The “IC50 (neutralization, TZM-bl)” value with HIV-1 Env of 3016.V5.c36 is 0.022 µg/mL; with HIV-1 Env of 6405.v4.c34 it was more than 50 µg/mL; with HIV-1 Env of C1080.c3, 0.016 µg/mL; in the assay with HIV-1 Env of CM244.ec1 it was 0.047 µg/mL; with HIV-1 Env of CNE3, more than 50 µg/mL; with HIV-1 Env of TH976.17, more than 50 µg/mL.
